Molecular target: the molecule itself
Test: crystal structure

B1: UDP-galactopyranose mutase from Mycobacterium tuberculosis (enzyme)
chain: MQPMTARFDLFVVGSGFFGLTIAERVATQLDKRVLVLERRPHIGGNAYSEAEPQTGIEVHKYGAHLFHTSNKRVWDYVRQFTDFTDYRHRVFAMHNGQAYQFPMGLGLVSQFFGKYFTPEQARQLIAEQAAEIDTADAQNLEEKAISLIGRPLYEAFVKGYTAKQWQTDPKELPAANITRLPVRYTFDNRYFSDTYEGLPTDGYTAWLQNMAADHRIEVRLNTDWFDVRGQLRPGSPAAPVVYTGPLDRYFDYAEGRLGWRTLDFEVEVLPIGDFQGTAVMNYNDLDVPYTRIHEFRHFHPERDYPTDKTVIMREYSRFAEDDDEPYYPINTEADRALLATYRARAKSETASSKVLFGGRLGTYQYLDMHMAIASALNMYDNVLAPHLRDGVPLLQDGA
**Q.** Does B1 bind?
**A.** Result: binds
